Experimental data taken from US20250326839A1, “TREATMENT OF DISEASES RELATED TO COLONY-STIMULATING FACTOR 1 RECEPTOR DYSFUNCTION USING TREM2 AGONISTS” (Vigil Neuroscience, Inc., priority 2020, published 2025).

T1: TREM2 (Homo sapiens, UniProt Q9NZC2)
T1 sequence (Q9NZC2 19-230): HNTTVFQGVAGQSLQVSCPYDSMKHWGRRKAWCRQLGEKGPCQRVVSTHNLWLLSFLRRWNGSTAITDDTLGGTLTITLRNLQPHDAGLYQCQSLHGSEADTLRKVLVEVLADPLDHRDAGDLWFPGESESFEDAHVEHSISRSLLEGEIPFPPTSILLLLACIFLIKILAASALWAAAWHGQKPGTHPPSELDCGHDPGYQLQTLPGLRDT

B1: V76: 6E7 variant: VH T30G, S63E, F110S; VL N56K (antibody, V domains shown)
VH: EVQLVQSGAEVKKPGESLKISCKGSGYSFGSYWIAWVRQMPGKGLEWMGIIYPGDSDTRYSPEFQGQVTISADKSISTAYLQWSSLKASDTAMYFCARQRTFYYDSSDYSDYWGQGTLVTVSS
VL: DIQMTQSPSSVSASVGDRVTITCRASQGISSWLAWYQQKPGKAPKLLIYAASSLQKGVPSRFSGSGSGRDFTLTISSLQPEDFATYFCQQADSFPRTFGQGTKLEIK
B2: V85: 6E7 variant: VH T30R, I50T, Q99S; VL L54R (antibody, V domains shown)
VH: EVQLVQSGAEVKKPGESLKISCKGSGYSFRSYWIAWVRQMPGKGLEWMGTIYPGDSDTRYSPSFQGQVTISADKSISTAYLQWSSLKASDTAMYFCARSRTFYYDSSDYFDYWGQGTLVTVSS
VL: DIQMTQSPSSVSASVGDRVTITCRASQGISSWLAWYQQKPGKAPKLLIYAASSRQNGVPSRFSGSGSGTDFTLTISSLQPEDFATYFCQQADSFPRTFGQGTKLEIK
B3: V86: 6E7 variant: VH T30G, I34L, Q65E, Q99S; VL L54R (antibody, V domains shown)
VH: EVQLVQSGAEVKKPGESLKISCKGSGYSFGSYWLAWVRQMPGKGLEWMGIIYPGDSDTRYSPSFEGQVTISADKSISTAYLQWSSLKASDTAMYFCARSRTFYYDSSDYFDYWGQGTLVTVSS
VL: DIQMTQSPSSVSASVGDRVTITCRASQGISSWLAWYQQKPGKAPKLLIYAASSRQNGVPSRFSGSGSGTDFTLTISSLQPEDFATYFCQQADSFPRTFGQGTKLEIK
B4: V84: 6E7 variant: VH S28G, F110S; VL A50G (antibody, V domains shown)
VH: EVQLVQSGAEVKKPGESLKISCKGSGYGFTSYWIAWVRQMPGKGLEWMGIIYPGDSDTRYSPSFQGQVTISADKSISTAYLQWSSLKASDTAMYFCARQRTFYYDSSDYSDYWGQGTLVTVSS
VL: DIQMTQSPSSVSASVGDRVTITCRASQGISSWLAWYQQKPGKAPKLLIYGASSLQNGVPSRFSGSGSGTDFTLTISSLQPEDFATYFCQQADSFPRTFGQGTKLEIK
B5: Ab-3: murinized version of a human TREM2 agonist antibody, engineered variant of 13E7; HC SEQ ID NO:2779, LC SEQ ID NO:2780 (antibody)
heavy: EVQLVQSGAEVKKPGESLKISCKGSGYSFTSYWIGWVRQMPGKGLEWMGIIYPGDADARYSPSFQGQVTISADKSISTAYLQWSSLKASDTAMYFCARRRQGIFGDALDFWGQGTLVTVSSAKTTPPSVYPLAPGSAAQTNSMVTLGCLVKGYFPEPVTVTWNSGSLSSGVHTFPAVLQSDLYTLSSSVTVPSSTWPSETVTCNVAHPASSTKVDKKIVPRDCGCKPCICTVPEVSSVFIFPPKPKDVLTITLTPKVTCVVVDISKDDPEVQFSWFVDDVEVHTAQTQPREEQFGSTFRSVSELPIMHQDWLNGKEFKCRVNSAAFPAPIEKTISKTKGRPKAPQVYTIPPPKEQMAKDKVSLTCMITDFFPEDITVEWQWNGQPAENYKNTQPIMDTDGSYFVYSKLNVQKSNWEAGNTFTCSVLHEGLHNHHTEKSLSHSPGK
light: EIVMTQSPATLSVSPGERATLSCRASQSVSSNLAWFQQKPGQAPRLLIYGASTRATGIPARFSGSGSGTEFTLTISSLQPEDFAVYYCLQDNNFPPTFGQGTKVDIKRADAAPTVSIFPPSSEQLTSGGASVVCFLNNFYPKDINVKWKIDGSERQNGVLNSWTDQDSKDSTYSMSSTLTLTKDEYERHNSYTCEATHKTSTSPIVKSFNRNEC
modifications: REGION 1..445: note = Murinized Ab-3 HC; REGION 1..214: note = Murinized Ab-3 LC

What was measured:
TREM2 = target: T1, TREM2; conditions: cited from earlier work; for Binding Signal (fold over 6E7 parental antibody) 1st screen 110 nM or 10 nM: 10 nM Ab concentration (values not marked *)
[1] = tested on: human monocyte-derived macrophages (hMDMs); test: Example 1E: CSF1 withdrawal, confluence and Caspase 3/7 apoptosis (Incucyte); format: cell-based; conditions: CSF1 withdrawal (0 ng/mL), plates coated with 0.4, 2.0 or 10 μg/mL, 72 hours
Method: PBMCs were isolated from fresh, whole blood from human donors. CD14+ monocytes were isolated using positive magnetic selection (Miltenyi). Cells were plated in UpCell® low-adhesion plates and incubated in culture media with 50 ng/mL CSF1 for 48 hours. After 48 hours, cells were non-enzymatically harvested and plated at 25,000 cells per well in cell culture plates coated with 0.4, 2.0, or 10 μg/mL of either Ab-3 or a matching isotype control, and incubated in a humidified incubator at 37C, 5% CO2 for 72 hours. Caspase-3/7 Green reporter dye was included in the some wells to determine the number of apoptotic events over time. During incubation, cells were monitored every two hours using an Incucyte S3® analyzer (2 fields of view per well, imaged at 10×). Confluence levels were determined using the Incucyte® software, and normalized to CSF1 at 50 ng/mL, which was considered as normal culture conditions. Caspase 3/7 positive counts per field of view were calculated using Incucyte® software. Significance was determined by Ordinary One-Way ANOVA, using multiple comparisons in Graphpad Prism.

[2] = tested on: human monocyte-derived macrophages (hMDMs); test: Example 2E: CSF1R inhibition by PLX5622, confluence and morphology (Incucyte); format: cell-based; conditions: plates coated with 10 μg/mL, plus PLX5622 1 μM, 96 hours
Method: PBMCs were isolated from fresh, whole blood from human donors. CD14+ monocytes were isolated using positive magnetic selection (Miltenyi). Cells were plated in UpCell® low-adhesion plates and incubated in culture media with 50 ng/mL CSF1 for 48 hours. After 48 hours, cells were non-enzymatically harvested and plated at 25,000 cells per well in cell culture plates coated with 10 μg/mL of either Ab-3 or a matching isotype control. PLX5622 was immediately added to the cultures to 1 μM, and plates were incubated in a humidified incubator at 37 C, 5% CO2 for an additional 96 hours. During incubation, cells were monitored every two hours using an Incucyte S3® analyzer (2 fields of view per well, imaged at 10×). Confluence was measured using built in S3 software, while area and eccentricity (cell shape) were measured using the built in “Cell By Cell” analysis software. Significance was determined by Student's T-test, two-tailed in Graphpad Prism.

Molecule	Binding Signal (fold over 6E7 parental antibody) 1st screen 110 nM or 10 nM (TREM2)	Binding Signal (fold over 6E7 parental antibody) 2nd screen 2 nM (TREM2)	Binding Signal (fold over 6E7 parental antibody) 2nd screen 10 nM (TREM2)	confluence ([1]; donors 16 and 26, FIGS. 1 and 2)	Caspase 3/7 levels (apoptosis) ([1]; donors 16 and 26, FIGS. 3 and 4)	confluence ([2]; FIG. 5)	cells with “high area, high eccentricity” (ramified) ([2]; FIG. 6)
B1	4.57 fold over 6E7 parental antibod	4.34 fold over 6E7 parental antibod	4.93 fold over 6E7 parental antibod	–	–	–	–
B2	5.41 fold over 6E7 parental antibod	5.41 fold over 6E7 parental antibod	5.37 fold over 6E7 parental antibod	–	–	–	–
B3	4.80 fold over 6E7 parental antibod	5.17 fold over 6E7 parental antibod	5.02 fold over 6E7 parental antibod	–	–	–	–
B4	1.44 fold over 6E7 parental antibod	1.45 fold over 6E7 parental antibod	1.62 fold over 6E7 parental antibod	–	–	–	–
B5	–	–	–	increased confluence levels to that of high CSF1 treated cells	reduced Caspase 3/7 levels to that of high CSF1 treated cells	restoration of confluence to levels similar to that of vehicle alone	restoration of “high area, high eccentricity” to levels higher than that of vehicle alone
